# Experimental data published in PMC2912912 (BMC Structural Biology, 2010).
# “And” between values parts separate entries of the source, which are not always exact repeats. Equal entries are not always repeated.
# Target: the molecule itself
# Test: SEC; analytical gel filtration, Tricorn Superdex 200 10/300, samples 5 mg/mL, 20 mM Tris-HCl pH 8.0, 200 mM NaCl, 1 mM DTT, 4°C; molecular weight against globular standards
row,Protein,stoichiometry N
1,"IpgC^21-155 (invasion plasmid gene C, residues 21-155) (domain or fragment) SGATLKDINAIPDDMMDDIYSYAYDFYNKGRIEEAEVFFRFLCIYDFYNVDYIMGLAAIYQIKEQFQQAADLYAVAFALGKNDYTPVFHTGQCQLRLKAPLKAKECFELVIQHSNDEKLKIKAQSYLDAIQDIKE",4 and 2
2,full-length IpgC (invasion plasmid gene C) (natural protein) MSLNITENESISTAVIDAINSGATLKDINAIPDDMMDDIYSYAYDFYNKGRIEEAEVFFRFLCIYDFYNVDYIMGLAAIYQIKEQFQQAADLYAVAFALGKNDYTPVFHTGQCQLRLKAPLKAKECFELVIQHSNDEKLKIKAQSYLDAIQDIKE,2
3,"IpgC^10-155 (invasion plasmid gene C, residues 10-155) (domain or fragment, source: E. coli BL21 (DE3), purified (Ni2+-NTA Sepharose, TEV digestion, Resource Q)) SISTAVIDAINSGATLKDINAIPDDMMDDIYSYAYDFYNKGRIEEAEVFFRFLCIYDFYNVDYIMGLAAIYQIKEQFQQAADLYAVAFALGKNDYTPVFHTGQCQLRLKAPLKAKECFELVIQHSNDEKLKIKAQSYLDAIQDIKE",2
